Assay results reported in patent US20120053119A1, “THERAPEUTIC METHOD FOR INCREASING PANCREATIC BETA CELL MASS” (priority 2009, published 2012).

Target: SDF-1 receptor CXCR4 on INS-1 clonal beta cells (UniProt O08565)
Assay: cell-based or functional assay

Chain of SDF-1 receptor CXCR4 on INS-1 clonal beta cells (O08565 whole entry): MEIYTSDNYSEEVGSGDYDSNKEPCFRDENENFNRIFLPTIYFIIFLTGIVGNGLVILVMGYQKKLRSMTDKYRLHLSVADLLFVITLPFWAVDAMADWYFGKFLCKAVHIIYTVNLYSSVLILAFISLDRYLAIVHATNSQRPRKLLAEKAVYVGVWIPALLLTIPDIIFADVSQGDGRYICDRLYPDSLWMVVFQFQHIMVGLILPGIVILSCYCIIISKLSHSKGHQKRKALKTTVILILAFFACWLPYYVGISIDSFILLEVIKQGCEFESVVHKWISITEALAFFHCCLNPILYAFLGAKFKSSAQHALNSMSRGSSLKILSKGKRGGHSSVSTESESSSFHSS

stromal cell-derived factor-1 (SDF-1) (ligand)
Wnt signaling reporter assay (TOPflash/FOPflash luciferase) in INS-1 cells: 0.4 nM
